Kd data for twelve molecules are collected here from article PMC4260915, “Colorful Protein-Based Fluorescent Probes for Collagen Imaging” (PLoS ONE, 2014).

To fix the notation:
B1: mTurquoise2-CNA35 (domain or fragment)
chain: ARDISSTNVTDLTVSPSKIEDGGKTTVKMTFDDKNGKIQNGDMIKVAWPTSGTVKIEGYSKTVPLTVKGEQVGQAVITPDGATITFNDKVEKLSDVSGFAEFEVQGRNLTQTNTSDDKVATITSGNKSTNVTVHKSEAGTSSVFYYKTGDMLPEDTTHVRWFLNINNEKSYVSKDITIKDQIQGGQQLDLSTLNINVTGTHSNYYSGQSAITDFEKAFPGSKITVDNTKNTIDVTIPQGYGSYNSFSINYKTKITNEQQKEFVNNSQAWYQEHGKEEVNGKSFNHTVHNINANAGIEGTVKGELKVLKQDKDTKA
notes: CNA35: domains N1 and N2 of the A-region of Staphylococcus aureus collagen adhesion protein, amino acids 30-344; Order: His-tag, thrombin cleavage site, mTurquoise2, flexible linkage of about 20 amino acids, CNA35; 65.2 kDa; also called FP-CNA35; N-terminal fusion of mTurquoise2 to CNA35; not shown: mTurquoise2, N-terminal, kept
B2: tdTomato-CNA35 (domain or fragment)
chain: B1 chain
notes: CNA35: domains N1 and N2 of the A-region of Staphylococcus aureus collagen adhesion protein, amino acids 30-344; Order: His-tag, thrombin cleavage site, tdTomato, flexible linkage of about 20 amino acids, CNA35; 92.5 kDa; also called FP-CNA35; N-terminal fusion of tdTomato to CNA35; not shown: tdTomato, N-terminal, kept
B3: mAmetrine-CNA35 (domain or fragment)
chain: B1 chain
notes: CNA35: domains N1 and N2 of the A-region of Staphylococcus aureus collagen adhesion protein, amino acids 30-344; Order: His-tag, thrombin cleavage site, mAmetrine, flexible linkage of about 20 amino acids, CNA35; 64.3 kDa; also called FP-CNA35; N-terminal fusion of mAmetrine to CNA35; not shown: mAmetrine, N-terminal, kept
B4: CNA35-EGFP (domain or fragment)
chain: B1 chain
notes: CNA35: domains N1 and N2 of the A-region of Staphylococcus aureus collagen adhesion protein, amino acids 30-344; Order: His-tag, thrombin cleavage site, CNA35, flexible linkage of about 20 amino acids, EGFP; 65.1 kDa; also called CNA35-FP; C-terminal fusion of EGFP to CNA35; not shown: EGFP, C-terminal, kept
B5: EGFP-CNA35 (domain or fragment)
chain: B1 chain
notes: CNA35: domains N1 and N2 of the A-region of Staphylococcus aureus collagen adhesion protein, amino acids 30-344; Order: His-tag, thrombin cleavage site, EGFP, flexible linkage of about 20 amino acids, CNA35; 65.0 kDa; also called N-terminal fusion of EGFP to CNA35; not shown: EGFP, N-terminal, kept
B6: CNA35-mCherry (domain or fragment)
chain: B1 chain
notes: CNA35: domains N1 and N2 of the A-region of Staphylococcus aureus collagen adhesion protein, amino acids 30-344; Order: His-tag, thrombin cleavage site, CNA35, flexible linkage of about 20 amino acids, mCherry; 64.7 kDa; also called CNA35-FP; C-terminal fusion of mCherry to CNA35; not shown: mCherry, C-terminal, kept
B7: CNA35-LSSmOrange (domain or fragment)
chain: B1 chain
notes: CNA35: domains N1 and N2 of the A-region of Staphylococcus aureus collagen adhesion protein, amino acids 30-344; Order: His-tag, thrombin cleavage site, CNA35, flexible linkage of about 20 amino acids, LSSmOrange; 64.7 kDa; also called CNA35-FP; C-terminal fusion of LSSmOrange to CNA35; not shown: LSSmOrange, C-terminal, kept
B8: LSSmOrange-CNA35 (domain or fragment)
chain: B1 chain
notes: CNA35: domains N1 and N2 of the A-region of Staphylococcus aureus collagen adhesion protein, amino acids 30-344; Order: His-tag, thrombin cleavage site, LSSmOrange, flexible linkage of about 20 amino acids, CNA35; 64.6 kDa; also called FP-CNA35; N-terminal fusion of LSSmOrange to CNA35; not shown: LSSmOrange, N-terminal, kept
B9: mCherry-CNA35 (domain or fragment)
chain: B1 chain
notes: CNA35: domains N1 and N2 of the A-region of Staphylococcus aureus collagen adhesion protein, amino acids 30-344; Order: His-tag, thrombin cleavage site, mCherry, flexible linkage of about 20 amino acids, CNA35; 64.6 kDa; also called FP-CNA35; N-terminal fusion of mCherry to CNA35; not shown: mCherry, N-terminal, kept
B10: CNA35-mTurquoise2 (domain or fragment)
chain: B1 chain
notes: CNA35: domains N1 and N2 of the A-region of Staphylococcus aureus collagen adhesion protein, amino acids 30-344; Order: His-tag, thrombin cleavage site, CNA35, flexible linkage of about 20 amino acids, mTurquoise2; 65.0 kDa; also called CNA35-FP; C-terminal fusion of mTurquoise2 to CNA35; not shown: mTurquoise2, C-terminal, kept
B11: CNA35-mAmetrine (domain or fragment)
chain: B1 chain
notes: CNA35: domains N1 and N2 of the A-region of Staphylococcus aureus collagen adhesion protein, amino acids 30-344; Order: His-tag, thrombin cleavage site, CNA35, flexible linkage of about 20 amino acids, mAmetrine; 64.4 kDa; also called CNA35-FP; C-terminal fusion of mAmetrine to CNA35; not shown: mAmetrine, C-terminal, kept
B12: CNA35-tdTomato (domain or fragment)
chain: B1 chain
notes: CNA35: domains N1 and N2 of the A-region of Staphylococcus aureus collagen adhesion protein, amino acids 30-344; Order: His-tag, thrombin cleavage site, CNA35, flexible linkage of about 20 amino acids, tdTomato; 93.1 kDa; also called CNA35-FP; C-terminal fusion of tdTomato to CNA35; not shown: tdTomato, C-terminal, kept

The target of the test is T1, Rat tail collagen type I (rat, UniProt P02454 152-1207; P02466 86-1125).
T1 construct: collagen alpha-1(I) chain, rat; collagen alpha-2(I) chain, rat; Immobilised as a collagen matrix formed on pH neutralisation; source: bought: Sigma-Aldrich, cat. no; C7661
T1 sequence (P02454 152-1207, chain 1 of 2): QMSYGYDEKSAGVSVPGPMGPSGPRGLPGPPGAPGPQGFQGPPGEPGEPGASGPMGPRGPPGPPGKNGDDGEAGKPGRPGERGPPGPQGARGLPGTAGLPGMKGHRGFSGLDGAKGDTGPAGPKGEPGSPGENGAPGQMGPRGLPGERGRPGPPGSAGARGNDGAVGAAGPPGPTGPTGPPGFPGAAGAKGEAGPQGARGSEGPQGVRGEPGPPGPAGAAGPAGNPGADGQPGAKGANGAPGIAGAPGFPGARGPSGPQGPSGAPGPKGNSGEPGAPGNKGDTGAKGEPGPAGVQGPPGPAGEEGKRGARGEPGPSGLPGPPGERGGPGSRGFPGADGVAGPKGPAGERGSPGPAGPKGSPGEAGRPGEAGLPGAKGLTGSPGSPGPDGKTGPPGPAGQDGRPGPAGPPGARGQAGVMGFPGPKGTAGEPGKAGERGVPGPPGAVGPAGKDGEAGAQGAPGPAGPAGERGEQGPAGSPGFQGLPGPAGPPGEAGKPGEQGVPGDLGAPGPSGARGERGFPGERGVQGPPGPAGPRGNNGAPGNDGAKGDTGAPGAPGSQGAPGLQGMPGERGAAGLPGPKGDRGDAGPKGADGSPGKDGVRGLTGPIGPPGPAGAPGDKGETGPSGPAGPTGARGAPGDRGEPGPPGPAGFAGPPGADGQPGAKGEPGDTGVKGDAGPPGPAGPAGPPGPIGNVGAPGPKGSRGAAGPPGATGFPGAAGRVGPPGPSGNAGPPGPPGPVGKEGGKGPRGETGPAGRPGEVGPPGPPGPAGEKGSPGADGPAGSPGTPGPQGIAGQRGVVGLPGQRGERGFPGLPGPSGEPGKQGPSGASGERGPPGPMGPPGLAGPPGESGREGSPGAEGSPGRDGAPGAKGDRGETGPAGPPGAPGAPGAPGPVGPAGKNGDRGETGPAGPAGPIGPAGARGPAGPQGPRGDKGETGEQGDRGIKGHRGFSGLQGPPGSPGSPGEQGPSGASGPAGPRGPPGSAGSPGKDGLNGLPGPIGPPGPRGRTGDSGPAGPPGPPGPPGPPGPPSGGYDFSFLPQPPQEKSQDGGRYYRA
T1 sequence (P02466 86-1125, chain 2 of 2): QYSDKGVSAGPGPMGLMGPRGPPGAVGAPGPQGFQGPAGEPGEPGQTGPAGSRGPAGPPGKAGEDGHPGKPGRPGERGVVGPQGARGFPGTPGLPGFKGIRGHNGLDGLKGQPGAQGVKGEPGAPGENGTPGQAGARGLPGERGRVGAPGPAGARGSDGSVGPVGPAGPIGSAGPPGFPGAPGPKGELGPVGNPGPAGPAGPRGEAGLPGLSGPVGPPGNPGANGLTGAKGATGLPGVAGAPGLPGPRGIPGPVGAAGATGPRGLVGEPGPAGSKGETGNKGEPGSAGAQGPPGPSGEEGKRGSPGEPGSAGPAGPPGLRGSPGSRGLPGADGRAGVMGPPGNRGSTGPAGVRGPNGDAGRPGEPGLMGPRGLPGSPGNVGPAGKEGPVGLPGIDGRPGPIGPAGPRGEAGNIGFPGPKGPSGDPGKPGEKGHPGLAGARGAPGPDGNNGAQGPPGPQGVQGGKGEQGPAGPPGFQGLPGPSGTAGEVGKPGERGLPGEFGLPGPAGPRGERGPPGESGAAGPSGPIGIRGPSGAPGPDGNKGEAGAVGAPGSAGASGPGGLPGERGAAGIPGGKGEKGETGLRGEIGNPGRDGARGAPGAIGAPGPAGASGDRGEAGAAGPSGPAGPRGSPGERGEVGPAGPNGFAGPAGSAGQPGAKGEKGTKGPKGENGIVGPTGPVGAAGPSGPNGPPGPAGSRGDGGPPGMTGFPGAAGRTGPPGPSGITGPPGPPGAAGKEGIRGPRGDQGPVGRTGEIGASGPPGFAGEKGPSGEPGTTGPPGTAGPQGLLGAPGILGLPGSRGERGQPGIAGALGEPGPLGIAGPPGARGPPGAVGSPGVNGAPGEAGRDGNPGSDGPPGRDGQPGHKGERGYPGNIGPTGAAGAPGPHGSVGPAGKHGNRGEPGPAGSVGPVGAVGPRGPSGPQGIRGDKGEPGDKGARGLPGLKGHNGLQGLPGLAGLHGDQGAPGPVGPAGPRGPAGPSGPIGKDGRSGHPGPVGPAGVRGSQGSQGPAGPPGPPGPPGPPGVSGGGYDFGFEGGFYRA
Description: solid-phase collagen binding assay (fluorescence of bound probe, plate reader); rat tail collagen type I or BSA immobilised in wells of a 96-well plate, blocked with 2% BSA; probe dilutions 0.1–50 µM, 1–1.5 hours at room temperature; 20 mM HEPES pH 7.2, 150 mM NaCl; apparent overall Kd. The conditions noted are these: both partners purified.
As for B1, the Kd was approximately 1000 nM. As for B2, the Kd was approximately 1000 nM.

Take B3: the Kd is approximately 1000 nM. Turning to B4, the Kd was approximately 1000 nM.

As to B5, the Kd was approximately 1000 nM.

Turning to B6, the Kd is approximately 1000 nM. The value for B7 was approximately 1000 nM; that for B8 was approximately 1000 nM; that for B9 was approximately 1000 nM.

Take B10: the Kd is approximately 1000 nM. The value for B11 was approximately 1000 nM; that for B12 was approximately 1000 nM.
